# Assay results published in patent US12371675B2, “Process and microorganism for synthesis of adipic acid from carboxylic acids” (THE GOVERNING COUNCIL OF THE UNIVERSITY OF TORONTO, priority 2015, dated 2025).
# How the values were obtained:
# [1] = substrate: O=C(O)/C=C/c1ccccc1; experiment: Kinetics of purified EREDBC, NADH oxidation at 340 nm, anaerobic; type: biochemical, Bacillus coagulans 36D1; conditions: other: trans-cinnamic acid, pH 7.0, 30° C., anaerobic
# Experimental: (§1) The C═C reducing activity of EREDs was examined. Enzyme activity of purified EREDs was measured spectrophotometrically in 96-well plates by following incubation for 3-5 min at 30° C. in the anaerobic chamber as described in M. Buhler, H. Simon, Hoppe-Seyler's Zeitschrift fur Physiologische Chemie 1982, 363, 609-625. Buffers and reagents were degassed and sparged with Ar. Reaction mixture contained potassium phosphate (100 mM and pH 7.0), NADH (0.5 mM), indicated substrates, and proteins (0.1-50 μg) in a final volume of 200 μL. Enzyme reactions were monitored by following the decrease in absorbance at 340 nm (ε340 nm=6,220/M·cm) due to oxidation of NADH to NAD+.
# (§2) For in vitro biochemical characterization, enzyme activities of purified EREDs were measured with 2-hexenedioic acid, cis-cis-muconic acid, trans-trans muconic acid, trans-cinnamic acid, trans-2-methyl-2-butenoic acid, trans-2-butenoic acid, acrolein, 2-cyclohexen-1-one, and 3-methyl-2-cyclohexenone. […] [Feng, J. et al. Discovery and Characterization of BlsE, a Radical S-Adenosyl-L-methionine Decarboxylase Involved in the Blasticidin S Biosynthetic Pathway. PLoS ONE 8 (2013)].
# (§3) Kinetic studies of purified EREDBC were performed using 2-hexenedioic acid, 2-cyclohexen-1-one, 3-methyl-2-cyclohexenone, and trans-cinnamic acid as substrates (FIG. 10).
# (§4) To increase the dissolved substrate concentration, 2-hexenedioic acid was dissolved in a reaction mixture containing […] (final concentration) isopropanol, and kinetic constants of EREDBC and EREDCA were determined.
# [2] = substrate: O=C(O)C=CCCC(=O)O; experiment: as above; type: biochemical, Bacillus coagulans 36D1; conditions: other: 2-hexenedioic acid in 0.25 mM isopropanol, 2.5 to 35 mM, sigmoidal kinetics, pH 7.0, 30.0 °C
# Experimental: as §1, §2, §3, §4
# [3] = substrate: CCCC=O; experiment: AR kinetics, aldehyde reduction followed by NAD(P)H oxidation; type: biochemical, Pseudomonas putida; conditions: other: butyraldehyde, pH 7.5
# From the text: (§5) 28 aldehyde reductases from different bacteria were cloned and overexpressed in E. coli. Enzymes purified using affinity chromatography on Ni-NTA resin were screened for reductase activity with adipaldehyde and butyraldehyde in presence of both NADPH and NADH (Table 5). Butyraldehyde was used as a substrate substitute for 4-oxo-butanal, which is not commercially available. Reactions were followed spectrophotometrically, by cofactor oxidation at 340 nm.
# (§6) Enzyme activity of purified ARs was measured spectrophotometrically in 96-well plates Reaction mixtures contained 100 mM HEPES buffer (pH 7.5), 0.4 mM NADH/NADPH, 10 mM adipaldehyde or butylaldehyde, and proteins (10 μg for adipaldehyde screen, 2 μg for butyraldehyde screen) in a final volume of 200 μL Reaction mixture for adipaldehyde screening contained 1.8% DMSO. Enzyme reactions were monitored by following the decrease in absorbance at 340 nm (ε340 nm=6,220/M·cm) due to oxidation of NAD(P)H to NAD(P)+.
# (§7) ARs RHA1_ro05279, PA1146, SC00229, PP_3370 were characterised for saturation with adipaldehyde, PP_3370, PSPTO_2097, RHA1_ro05279, SC00229, TM_0111, PA1146 were characterised for butyraldehyde saturation (Table 10). […] For both substrates maximal kcat/Km with minimal Km values was shown by AR PP 3370 from Pseudomonas putida.
# [4] = substrate: O=CCCCCC=O; experiment: as above; type: biochemical, Pseudomonas putida; conditions: other: adipaldehyde, 1,8% DMSO, pH 7.5
# From the text: as §5, §6, §7
# [5] = substrate: CCCC=O; experiment: as above; type: biochemical, Streptomyces coelicolor; conditions: other: butyraldehyde, pH 7.5
# From the text: as §5, §6, §7
# [6] = substrate: O=CCCCCC=O; experiment: as above; type: biochemical, Streptomyces coelicolor; conditions: other: adipaldehyde; cofactor NADPH; 1,8% DMSO; pH 7.5
# From the text: as §5, §6, §7
# [7] = substrate: CCCC=O; experiment: as above; type: biochemical, Thermotoga maritima; conditions: other: butyraldehyde, pH 7.5
# From the text: as §5, §6, §7
# [8] = substrate: O=CCCCCC=O; experiment: AT kinetics, coupled with alanine and glutamate dehydrogenases; type: biochemical, Escherichia coli; conditions: other: amino-donor Ala/Glu; pH 7.5
# Experimental: (§8) 28 PLP-dependent aminotransferases (from the classes I, II and III) were cloned and overexpressed in E. coli (Table 6). Enzymes were purified using affinity chromatography on a Ni-NTA resin and were screened for […] activity towards adipaldehyde using alanine and glutamate as amino-donors. Enzyme activity was measured spectrophotometrically using a coupled reaction with the NADPH/NADH-dependent alanine and glutamate dehydrogenases in the presence of excess of ammonium chloride.
# (§9) Reaction was monitored by following the decrease in absorbance of NAD(P)H to NAD(P)+ at 340 nm (ε340 nm=6,220/M·cm). Coupled enzymes can aminate pyruvate/ketoglutarate produced by ATs in excess of NH4Cl.
# [9] = substrate: O=CCCCCC=O; experiment: as above; type: biochemical, Streptomyces avermitilis; conditions: other: amino-donor Ala/Glu; pH 7.5
# Experimental: as §8, §9
protein,measurement,setting,value
"Bacillus coagulans 36D1 2-enoate reductase EREDBC, SEQ ID NO: 1 (Heyndrickxia coagulans) (protein) MKYKKLFETVKIRNVELKNRYAMAPMGPLGLADAEGGFNQRGIEYYTARARGGTALIITGVTFVDNEVEEHGMPNVPCPTHNPVHFVRTSKEMTERIHAYDSKIFLQMSAGFGRVTIPTNLGEYPPVAPSPIPHRWLDKTCRELTVEEIHSIVRKFGDGAFNAKRAGFDGVQIHAVHEGYLLDQFAIAFFNKRTDAYGGPLENRLRFAREIVEEIKQRCGEDFPVTLRFSPKSFIKDWREGALPGEEFEEKGRDLDEGIEAAKLLVSYGYDALDVDVGSYDSWWWSHPPMYQKKGLYIPYARLVKEAVDVPVLCAGRMDNPDLALAALEDGACDIISLGRPLLADPDYVNKLRIGQVADIRPCLSCHEGCMGRIQEYSSLGCAVNPAACREKEAALTPALKKKRVLIAGGGVAGCEAARVLALRGHEPVIFEKSNRLGGNLIPGGAPDFKEDDLALVAWYEHTLERLGVEIHLNTALTKEEILAANVDAVLIATGSNPKILPLDGKNKVFTAEDVLLDKVDAGQHVVIVGGGLVGCELALNLAEKGKDVSLVEMQDKLLAVNGPLCHANSDMLERLVPFKGVQVYTSSKIVDTTEKTAVVDVDGELREIEADSIVLAVGYSAEKSLYEDLKFEVADLHVVGDARKVANIMYAIWDAYEVAANL",Km,[1],510 µM
same,kcat,[1],0.50 s⁻¹
same,Km,[2],18900 µM
"Pseudomonas putida aldehyde reductase PP_3370, SEQ ID NO: 45 (Pseudomonas putida KT2440) (protein) MQYVKLGSTGLDISRLCLGCMTFGEPDAGTHPWTLGEDASRPIIRHAVEQGINFFDTANSYSAGTSEIILGKLLREFTRREETVIATKVFFPANMWEGASRPNEQGLSRKAIMANIDASLSRLGTDYVDLYQIHRWDYHTPIEETMEALHDVVKAGKARYIGASSMYAWQFAKAQQVAANHGWSRFVSMQNYLNLIYREEEREMIPLCLDQGVGLMPWSPMARGRLTRPHGQQTQRTRTDVSGQSFYEKTEVEDGRVIDVVEQIASERGVPMAQVALAWVLGRAGVSAPIVGASKPAHLDDALGALSLQLSEDEVARLQAPYVPHAVTGFK",Km,[3]; cofactor NADH,16100 ± 1890 µM
same,kcat,[3]; cofactor NADH,10.7 ± 0.73 s⁻¹
same,kcat/Km,[3]; cofactor NADH,(6.64 ± 0.45) × ×10^2 M^−1 · s^−1
same,Km,[3]; cofactor NADPH,1530 ± 110 µM
same,kcat,[3]; cofactor NADPH,8.54 ± 0.22 s⁻¹
same,kcat/Km,[3]; cofactor NADPH,5.58±0.14 ×10^3 M^−1 · s^−1
same,Km,[4]; cofactor NADH,4780 ± 490 µM
same,kcat,[4]; cofactor NADH,1.74 ± 0.08 s⁻¹
same,kcat/Km,[4]; cofactor NADH,(3.64 ± 0.16) × ×10^2 M^−1 · s^−1
same,Km,[4]; cofactor NADPH,290 ± 20 µM
same,kcat,[4]; cofactor NADPH,6.03 ± 0.25 s⁻¹
same,kcat/Km,[4]; cofactor NADPH,2.08±0.09 ×10^4 M^−1 · s^−1
"Streptomyces coelicolor aldehyde reductase SCO0229, SEQ ID NO: 50 (Streptomyces coelicolor A3(2)) (protein) MQRQNWLITGVSTGLGRAFAQAALSAGHTVVGTVRSENDVRAFEELGPGHAHGRILDVTDGGAVNGVVAEVERSVGPLDVVVANAGYGLEGTFEETPLAEVRRQFDVNVFGAMATLQAALPHMRARRRGHLMAVTSMGGLMAVPGMSAYCGSKFALEGILEALGKEVAQFGIHVTAIEPGSFRTDWAGRSMTRAARTVADYDDLFAPIREARQKASGNQLGNPAKAGEAVVHITSVDQPPAHLVLGSDALRLVTAARTAVDEDIRAWEALSRTTDFPQGAQL",Km,[5]; cofactor NADH,6560 ± 2540 µM
same,kcat,[5]; cofactor NADH,0.90 ± 0.05 s⁻¹
same,kcat/Km,[5]; cofactor NADH,(1.07 ± 0.18) × ×10^2 M^−1 · s^−1
same,Km,[5]; cofactor NADPH,35700 ± 10500 µM
same,kcat,[5]; cofactor NADPH,21.9 ± 4.69 s⁻¹
same,kcat/Km,[5]; cofactor NADPH,(6.15 ± 1.31) × ×10^2 M^−1 · s^−1
same,Km,[6],8480 ± 580 µM
same,kcat,[6],3.79 ± 0.10 s⁻¹
same,kcat/Km,[6],(4.47 ± 0.12) × ×10^2 M^−1 · s^−1
"Thermotoga maritima aldehyde reductase TM_0111, SEQ ID NO: 52 (Thermotoga maritima MSB8) (protein) MFKISFYLPTEIIFRVGAVDELEERAKKLGKKALIVTGRSSTKKTGLLQRVVDLLKKAGVESFVFDKIVPNPISDHVDEAAEIVRKEKIDFIIGLGGGSPIDSAKAISITAPNEGKFWDYVPVGGGKIPEKSIPVVAIPTTHGTGTEADPFAVITNPQTKEKVGIGYRNTFPVLSLVDPEVMKTLPKDQTAYTSMDAFYHAIEAFLNVNANPYSDVLALDAMKRIVTYLPVAYENGEDMEARTNLAWASTEAGITETLTGVIANHALEHGLSGFYPEITHGLGLCITGPYLFEYIFDHAYERLAIVGREVFGVYETDDRKAGRLAIKKLRDFQEMFGLNKRLSELGVKKEDIPKMAETGYRILNGVVVVTPGNLTAKDMEEIFNRCY",Km,[7]; cofactor NADH,1370 ± 310 µM
same,kcat,[7]; cofactor NADH,0.90 ± 0.05 s⁻¹
same,kcat/Km,[7]; cofactor NADH,(6.57 ± 0.36) × ×10^2 M^−1 · s^−1
same,Km,[7]; cofactor NADPH,2720 ± 1390 µM
same,kcat,[7]; cofactor NADPH,0.30 ± 0.06 s⁻¹
same,kcat/Km,[7]; cofactor NADPH,(1.10 ± 0.22) × ×10^2 M^−1 · s^−1
"Escherichia coli aminotransferase gabT, SEQ ID NO: 53 (Escherichia coli K-12) (protein, 6His-tag (N); made in house; host or cells: E. coli BL21 (DE3)) MNSNKELMQRRSQAIPRGVGQIHPIFADRAENCRVWDVEGREYLDFAGGIAVLNTGHLHPKVVAAVEAQLKKLSHTCFQVLAYEPYLELCEIMNQKVPGDFAKKTLLVTTGSEAVENAVKIARAATKRSGTIAFSGAYHGRTHYTLALTGKVNPYSAGMGLMPGHVYRALYPCPLHGISEDDAIASIHRIFKNDAAPEDIAAIVIEPVQGEGGFYASSPAFMQRLRALCDEHGIMLIADEVQSGAGRTGTLFAMEQMGVAPDLTTFAKSIAGGFPLAGVTGRAEVMDAVAPGGLGGTYAGNPIACVAALEVLKVFEQENLLQKANDLGQKLKDGLLAIAEKHPEIGDVRGLGAMIAIELFEDGDHNKPDAKLTAEIVARARDKGLILLSCGPYYNVLRILVPLTIEDAQIRQGLEIISQCFDEAKQ",Km,[8],670 ± 70 µM
same,kcat,[8],0.61 ± 0.02 s⁻¹
same,kcat/Km,[8],9.22±0.27 ×10^2 M^−1 · s^−1
"Streptomyces avermitilis aminotransferase SAV2583, SEQ ID NO: 55 (Streptomyces avermitilis MA-4680 = NBRC 14893) (protein) MSALPQERRVVTAIPGPKSQELQARRTAVVAAGVGSVLPVFTTRAGGGIIEDVDGNRLIDFGSGIAVTSVGASAEAVVRRASAQLQDFTHTCFMVTPYEGYVAVAEALAELTPGDHAKKSALFNSGAEAVENAVKIARAYTKRQAVVVFDHGYHGRTNLTMALTAKNMPYKNGFGPFAPEVYRVPVAYGYRWLTGPENAGAEASAQAIDMINKQIGADNVAAIIIEPVLGEGGFIEPAKGFLPAISKFAKDNGIVFVADEIQSGFCRTGQWFACEDEGIVPDLITTAKGIAGGLPLAAVTGRAEIMDAAHAGGLGGTYGGNPVACAGALGAIETMKELDLNAKAKNIEAVMKARLGAMAEKFDIIGDVRGRGGMIAIELVKDRDTKEPNPEAAGALAKACHQEGLLVLTCGTYGNVLRFLPPLVIGEDLLNEGLDIIEQAFSRI",Km,[9],1350 ± 190 µM
same,kcat,[9],0.39 ± 0.02 s⁻¹
same,kcat/Km,[9],(2.90 ± 0.13) × ×10^2 M^−1 · s^−1
